Substitutions are numbered along the chain they refer to. Values belong to the binder of their own block, whether it stands above or below them.
Key:
FcγRIIA protein = molecular target: T1, FcγRIIA protein (human, UniProt P12318 36-217, biotinylated (SureLINK Biotin Kit) in the ELISA of Example 1); test: ELISA; bt-FcγRIIA on streptavidin plate, purified FN3 domain titrated
T1 construct: Soluble/recombinant antigen used in ELISA; also called bt-FcγRIIA; recombinant FcγRIIA protein
T1 sequence: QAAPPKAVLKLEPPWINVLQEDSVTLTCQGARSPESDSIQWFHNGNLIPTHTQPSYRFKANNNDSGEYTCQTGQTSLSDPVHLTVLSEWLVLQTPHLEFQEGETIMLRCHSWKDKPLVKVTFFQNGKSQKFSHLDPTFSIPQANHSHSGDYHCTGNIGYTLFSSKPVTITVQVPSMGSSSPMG
Description: (§1) For primary ELISA, Maxisorp 96-well plates were loaded with 100 μL per well of streptavidin (Promega; 5 μg/mL in PBS) and then held at 4° C. overnight. The next day, the streptavidin-coated plates were washed 3×TBST and then blocked with 250 μL Starting Block T20 (Pierce-cat#37543). After a 1 h incubation, all plates were washed 3 times with 1×TBST, loaded with 100 μL per well of either bt-FcγRIIA, bt-FcγRIIB, or bt-HSA (negative screen) all at 1 μg/mL, and held at room temperature for 1 h. The previously lysed FN3 domains were centrifuged at 3500 rpm for 10 minutes, diluted 1:10 in Starting Block T20 and added 100 μL each to the plates. After a 1 h incubation at room temperature, the plates were washed 3× with 1×TBST and the wells were loaded with 100 μL of a HRP conjugated rabbit polyclonal antibody against tencon 27. After a final 1 h incubation at room temperature, the plates were washed 3× with 1×TBST, loaded with 100 μL per well of the chemiluminescence substrate POD (Roche), and read in a Perkin Elmer Envision plate reader. Positive binding colonies (those clones showing 5-fold higher binding to FcγRIIA or FcγRIIB when compared to HSA) were subjected to Sanger sequencing and identified coding sequences were in silico translated to amino acid sequences. Sequence unique FN3 domains were expressed in BL21 cells and purified using nickel sepharose plates. Antigen binding of purified FN3 domains in a dilution series was performed. Specifically, in an ELISA format, Streptavidin coated plates (Promega #Z7041) were used to capture 50 μL of 1 μg/mL of either bt-FcγRIIB, bt-FcγRIIA, or as a negative control against sticky FN3 domains bt-HSA. To this FN3 domains were added at 10 μM then diluted 1:5 down to 128 pM, and detected for binding using a HRP conjugated rabbit polyclonal against tencon 27 and POD substrate (Roche #11582950001). Binding curves and EC50 values were calculated using X=log(x) transformation and non-linear regression (curved slope) calculations of Prism GraphPad.

FcγRIIB protein = molecular target: T2, FcγRIIB protein (human, UniProt P31994 43-217, biotinylated (SureLINK Biotin Kit) in the ELISA of Example 1); test: ELISA; bt-FcγRIIB on streptavidin plate, purified FN3 domain titrated
T2 construct: Soluble/recombinant antigen used in ELISA; also called bt-FcγRIIB; recombinant FcγRIIB protein
T2 sequence: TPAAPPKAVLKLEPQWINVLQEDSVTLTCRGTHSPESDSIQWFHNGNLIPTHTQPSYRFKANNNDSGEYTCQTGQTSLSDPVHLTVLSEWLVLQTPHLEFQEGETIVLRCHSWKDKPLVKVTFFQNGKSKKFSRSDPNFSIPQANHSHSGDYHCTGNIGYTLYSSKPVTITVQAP
Description: as §1

[1] = molecular target: T3, human FcγRIIB (NM_004001) expressed on cells (human, UniProt P31994 43-310); test: cell-based or functional assay
T3 sequence: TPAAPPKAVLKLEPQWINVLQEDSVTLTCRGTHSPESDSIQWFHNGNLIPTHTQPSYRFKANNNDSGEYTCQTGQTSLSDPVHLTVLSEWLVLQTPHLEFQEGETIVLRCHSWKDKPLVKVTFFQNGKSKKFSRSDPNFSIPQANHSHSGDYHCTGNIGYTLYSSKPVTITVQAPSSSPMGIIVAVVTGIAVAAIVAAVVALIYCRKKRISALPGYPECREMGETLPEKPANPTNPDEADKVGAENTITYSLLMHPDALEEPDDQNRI

[2] = molecular target: T4, human FcγRIIA (NM_021642) expressed on cells (human, UniProt P12318 36-317); test: cell-based or functional assay
T4 sequence: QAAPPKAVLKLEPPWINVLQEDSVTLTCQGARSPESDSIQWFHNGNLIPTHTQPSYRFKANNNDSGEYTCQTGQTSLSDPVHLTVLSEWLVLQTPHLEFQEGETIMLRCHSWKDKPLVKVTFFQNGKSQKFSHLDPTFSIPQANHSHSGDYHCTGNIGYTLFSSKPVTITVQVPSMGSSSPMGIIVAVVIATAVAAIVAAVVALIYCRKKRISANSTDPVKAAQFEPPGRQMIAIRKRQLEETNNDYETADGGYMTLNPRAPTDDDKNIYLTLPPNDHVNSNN

[3] = molecular target: T5, human OX40 expressed on HEK-Blue: OX40 cells (human, UniProt P43489 29-277); test: flow cytometry; HEK-Blue: OX40 cells
T5 construct: also called CD134
T5 sequence: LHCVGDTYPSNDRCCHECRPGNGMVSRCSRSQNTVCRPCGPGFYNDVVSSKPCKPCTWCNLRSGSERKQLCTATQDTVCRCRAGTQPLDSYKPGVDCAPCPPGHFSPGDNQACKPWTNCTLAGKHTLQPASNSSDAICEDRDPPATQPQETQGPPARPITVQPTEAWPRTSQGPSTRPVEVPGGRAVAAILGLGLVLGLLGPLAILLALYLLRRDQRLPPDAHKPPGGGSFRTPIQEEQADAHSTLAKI
Description: (§2) 2×10⁵ cells per well were seeded in 96-well plate and blocked in BSA Stain Buffer (BD Biosciences, San Jose, USA) for 30 min at 4° C. Cells were incubated with test mAbtyrin on ice for 1.5 h at 4° C. After being washed twice with BSA stain buffer, the cells were incubated with R-PE labeled anti-human or anti-mouse IgG secondary antibody (Jackson Immunoresearch Laboratories) for 45 min at 4° C. The cells were washed twice in stain buffer and then resuspended in 150 μL of Stain Buffer containing 1:200 diluted DRAQ7 live/dead stain (Cell Signaling Technology, Danvers, USA). PE and DRAQ7 signals of the stained cells were detected by Miltenyi MACSQuant flow cytometer (Miltenyi Biotec, Auburn, USA) using B2 and B4 channel respectively. Live cells were gated on DRAQ7 exclusion and the geometric mean fluorescence signals were determined for at least 10,000 live events collected. FlowJo software (Tree Star) was used for analysis. Data was plotted as the logarithm of antibody concentration versus mean fluorescence signals. Nonlinear regression analysis was performed by GraphPad Prism 6 (GraphPad Software, Inc.) and EC₅₀ values were calculated.
The binding of mAbtyrins on OX40 expressed on cell surface were investigated by flow cytometry assay described for testing mAbtyrin binding to FcγR. A stable HEK-Blue reporter cell line expressing human OX40 (HEK-Blue: OX40) was established by transfection OX40 expression plasmid (pUNO1-hOX40) into HEK-Blue™ Null 1 cells engineered to express a secreted embryonic alkaline phosphatase (SEAP) reporter gene under the control of NF-κB-inducible promoter (IFN-β minimal promoter). mAbtyrins were incubated with HEK-Blue: OX40 cells and the binding was detected by flow cytometry using a PE-labeled Goat F(ab′)₂ against Human IgG(γ).

[4] = molecular target: T3, human FcγRIIB (NM_004001) expressed on …; test: flow cytometry; Raji cells (express predominantly FcγRIIB)
[5] = molecular target: T4, human FcγRIIA (NM_021642) expressed on …; test: flow cytometry; Expi293F cells transfected with FcγRIIA
Description: (§3) Plasmids expressing cDNAs encoding human FcγRI (NM_000566) (SEQ ID NO: 44), FcγRIIA (NM_021642) (SEQ ID NO: 2), FcγRIIB (NM_004001) (SEQ ID NO: 3), and FcγRIIIA (NM_000569) (SEQ ID NO: 45) (Origene) were transiently transfected into Expi293F cells by ExpiFectamine293 transfection kit (Life Technologies). Flow cytometry assays were performed 48 h after transfection.
as §2

[6] = molecular target: T3, human FcγRIIB (NM_004001) expressed on …; test: flow cytometry; Expi293F cells transfected with FcγRIIB
Description: as §3, §2

[7] = molecular target: T3, human FcγRIIB (NM_004001) expressed on …; test: flow cytometry; Raji cells (express predominantly FcγRIIB); remark: listed apart in the source
Description: as §2
Raji cell is a cell line derived from B cells that express predominantly FcγRIIB. The binding of mAbtyrins on Raji cells were investigated by flow cytometry assay described for testing mAbtyrin binding to FcγR. Binding of the mAbtyrins were detected by flow cytometry using a PE-labeled Goat F(ab′) against Human IgG(γ).

EC50 (FcγRIIA protein): 27.3 nM
EC50 (FcγRIIB protein): 7.59 nM
B1: R2BS6 (designed binder)
chain: LPAPKNLVVSRVTEDSARLSWTAPDAAFDSFLIQYQESEKVGEAIVLTVPGSERSYDLTGLKPGTEYTVSIYGVQYAAWYLPRHHEASNPLSAIFTT
notes: expressed in E. coli BL21 and purified on nickel sepharose; also called R2BS6 FN3 domain

EC50 (FcγRIIA protein): 15.5 nM
EC50 (FcγRIIB protein): 419 nM
B2: R2BS39 (designed binder)
chain: LPAPKNLVVSRVTEDSARLSWTAPDAAFDSFLIQYQESEKVGEAIVLTVPGSERSYDLTGLKPGTEYTVSIYGVSHGPWYNYGEWRSNPLSAIFTT
notes: expressed in E. coli BL21 and purified on nickel sepharose; also called R2BS39 FN3 domain

% activity at 1 µg/ml with Raji cells (HEK-Blue: OX40 NF-κB reporter, relative to 1 µg/ml OX40 ligand) [1]: 103%
fold of agonism enhancement upon crosslinking (Raji cells) [1]: 25 fold
Binding to HEK-Blue: OX40 cells (mean signal at 1 µg/ml) [3]: 10200 mean fluorescence signal
fold binding signal over OX40SF2IgG2sigma at 10 µg/mL [4]: ≥ 6 fold
EC50 [5]: 0.323 µg/mL
EC50 [6]: 1.38 µg/mL
Binding to Raji cells mean signals at 10 µg/ml [7]: 2290 mean fluorescence signal
EC50 [7]: > 10 µg/mL
B3: OX40SF2IgG2sigma_R2BS26_HC-C (bispecific antibody)
heavy: QVQLVQSGAEVKKPGSSVKVSCKASGYTFKDYTMHWVRQAPGQGLEWIGGIYPNNGGSTYNQNFKDRVTLTADKSTSTAYMELSSLRSEDTAVYYCARMGYHGPHLDFDVWGQGTTVTVSSASTKGPSVFPLAPCSRSTSESTAALGCLVKDYFPEPVTVSWNSGALTSGVHTFPAVLQSSGLYSLSSVVTVPSSNFGTQTYTCNVDHKPSNTKVDKTVERKCCVECPPCPAPPAAASSVFLFPPKPKDTLMISRTPEVTCVVVDVSAEDPEVQFNWYVDGVEVHNAKTKPREEQFNSTFRVVSVLTVLHQDWLNGKEYKCKVSNKGLPSSIEKTISKTKGQPREPQVYTLPPSREEMTKNQVSLTCLVKGFYPSDIAVEWESNGQPENNYKTTPPMLDSDGSFFLYSKLTVDKSRWQQGNVFSCSVMHEALHNHYTQKSLSLSPGKGGGGGSGGGGSGGGGSGGGGSLPAPKNLVVSRVTEDSARLSWTAPDAAFDSFPIAYIEYWTGGEAIVLTVPGSERSYDLTGLKPGTEYFVWIHGVKGGAWSSPLSAIFTT
light: DIQMTQSPSSLSASVGDRVTITCKASQDVGAAVAWYQQKPGKAPKLLIYWASTRHTGVPSRFSGSGSGTDFTLTISSLQPEDFATYYCQQYINYPLTFGGGTKVEIKRTVAAPSVFIFPPSDEQLKSGTASVVCLLNNFYPREAKVQWKVDNALQSGNSQESVTEQDSKDSTYSLSSTLTLSKADYEKHKVYACEVTHQGLSSPVTKSFNRGEC
notes: mAbtyrin: anti-OX40 antibody OX40SF2, effector silent IgG2sigma, with linker and R2BS26 FN3 domain at the C-terminus of the heavy chain; also called mAbtyrin
% OX40 cell killed by macrophages (ADCP, 1 µg/ml) [2]: 92%

% activity at 1 µg/ml with Raji cells (HEK-Blue: OX40 NF-κB reporter, relative to 1 µg/ml OX40 ligand) [1]: 88.1%
fold of agonism enhancement upon crosslinking (Raji cells) [1]: 21 fold
Binding to HEK-Blue: OX40 cells (mean signal at 1 µg/ml) [3]: 8900 mean fluorescence signal
fold binding signal over OX40SF2IgG2sigma at 10 µg/mL [4]: ≥ 6 fold
EC50 [5]: 0.498 µg/mL
EC50 [6]: 1.51 µg/mL
Binding to Raji cells mean signals at 10 µg/ml [7]: 3260 mean fluorescence signal
EC50 [7]: > 10 µg/mL
B4: OX40SF2IgG2sigma_R2BS9_HC-C (bispecific antibody)
heavy: B3 heavy with P500W, A502Y, I504L, T508R, W538Q, A546Q, W547Y, S549Y
light: B3 light
notes: mAbtyrin: anti-OX40 antibody OX40SF2, effector silent IgG2sigma, with linker and R2BS9 FN3 domain at the C-terminus of the heavy chain; also called mAbtyrin
% OX40 cell killed by macrophages (ADCP, 1 µg/ml) [2]: 85%

EC50 (FcγRIIA protein): 3.22 nM
EC50 (FcγRIIB protein): 3.57 nM
B5: R2BS29 (designed binder)
chain: LPAPKNLVVSRVTEDSARLSWTAPDAAFDSFPIYYWEYRVGGEAIVLTVPGSERSYDLTGLKPGTEYFVYINGVKGGEESRPLSAIFTT
notes: expressed in E. coli BL21 and purified on nickel sepharose; also called R2BS29 FN3 domain; R2B29

EC50 (FcγRIIA protein): 6.51 nM
EC50 (FcγRIIB protein): 5.3 nM
B6: R2BS26 (designed binder)
chain: B5 chain with Y34A, W36I, R39W, V40T, Y70W, N72H, E78A, E79W, R81S
notes: expressed in E. coli BL21 and purified on nickel sepharose; also called R2BS26 FN3 domain

EC50 (FcγRIIA protein): 9.6 nM
EC50 (FcγRIIB protein): 43 nM
B7: R2BS12 (designed binder)
chain: B5 chain with P32L, Y34A, W36A, R39W, V40E, I45V, Y70Q, E78F, E79W, R81I
notes: expressed in E. coli BL21 and purified on nickel sepharose; also called R2BS12 FN3 domain; R2B12

EC50 (FcγRIIA protein): 5.5 nM
EC50 (FcγRIIB protein): 7.32 nM
B8: R2BS56 (designed binder)
chain: B5 chain with P32S, Y34A, V40K, Y70L, N72Y, E78W, E79Q, R81K
notes: expressed in E. coli BL21 and purified on nickel sepharose; also called R2BS56 FN3 domain; R2B56

EC50 (FcγRIIA protein): 5.49 nM
EC50 (FcγRIIB protein): 4.51 nM
B9: R2BS9 (designed binder)
chain: B5 chain with P32W, W36L, R39W, V40R, Y70Q, N72H, E78Q, E79Y, R81Y
notes: expressed in E. coli BL21 and purified on nickel sepharose; also called R2BS9 FN3 domain

From US20190062420A1 (Janssen / Centocor, published 2019)
